The chains are these.
B1: Zinc finger homeobox protein 3, residues 2244 to 2299; numbered along this chain, Q15911 (parent)
chain: SSRTRFTDYQLRVLQDFFDANAYPKDDEFEQLSNLLNLPTRVIVVWFQNARQKARK

± gives the uncertainty stated by the source.

Variants of B1 are the subject of this data set. Description: abundance fitness (aPCA) (normalised: wild type 0, dead -1); higher = more abundant; growth selection in yeast, the domain comes from the species named. The following applies: Homo sapiens.
Turning to SSRTRFTDYQLRVLQDDFDANAYPKDDEFEQLSNLLNLPTRVIVVWFQNARQKARK [F17D], the abundance fitness was -0.876 ± 0.18. The result for SSRTRFTDYQLRVLQDCFDANAYPKDDEFEQLSNLLNLPTRVIVVWFQNARQKARK [F17C] reads -0.222 ± 0.15; that for SSRTRFTDYQLRVLQDVFDANAYPKDDEFEQLSNLLNLPTRVIVVWFQNARQKARK [F17V], -0.124 ± 0.087; that for SSRTRFTDYQLRVLQDPFDANAYPKDDEFEQLSNLLNLPTRVIVVWFQNARQKARK [F17P], -1.08 ± 0.23.

Regarding SSRTRFTDYQLRVLQDAFDANAYPKDDEFEQLSNLLNLPTRVIVVWFQNARQKARK [F17A], the abundance fitness turned out to be 0.17 ± 0.1. The result for SSRTRFTDYQLRVLQDYFDANAYPKDDEFEQLSNLLNLPTRVIVVWFQNARQKARK [F17Y] reads 0.03 ± 0.13. Turning to SSRTRFTDYQLRVLQDRFDANAYPKDDEFEQLSNLLNLPTRVIVVWFQNARQKARK [F17R], the abundance fitness stood at 0.084 ± 0.076.

As for SSRTRFTDYQLRVLQDKFDANAYPKDDEFEQLSNLLNLPTRVIVVWFQNARQKARK [F17K], the abundance fitness was 0.011 ± 0.13. Turning to SSRTRFTDYQLRVLQDHFDANAYPKDDEFEQLSNLLNLPTRVIVVWFQNARQKARK [F17H], the abundance fitness amounted to 0.245 ± 0.19. The figure for SSRTRFTDYQLRVLQDQFDANAYPKDDEFEQLSNLLNLPTRVIVVWFQNARQKARK [F17Q] is -0.47 ± 0.14. For the variant SSRTRFTDYQLRVLQDTFDANAYPKDDEFEQLSNLLNLPTRVIVVWFQNARQKARK [F17T], the abundance fitness is -0.074 ± 0.12.

Take SSRTRFTDYQLRVLQDNFDANAYPKDDEFEQLSNLLNLPTRVIVVWFQNARQKARK [F17N]: the abundance fitness was -0.125 ± 0.16. With SSRTRFTDYQLRVLQDSFDANAYPKDDEFEQLSNLLNLPTRVIVVWFQNARQKARK [F17S], the abundance fitness was -0.025 ± 0.11. Take SSRTRFTDYQLRVLQDWFDANAYPKDDEFEQLSNLLNLPTRVIVVWFQNARQKARK [F17W]: the abundance fitness is -0.214 ± 0.11. In the case of SSRTRFTDYQLRVLQDMFDANAYPKDDEFEQLSNLLNLPTRVIVVWFQNARQKARK [F17M], the abundance fitness is -0.039 ± 0.14.

On to SSRTRFTDYQLRVLQDLFDANAYPKDDEFEQLSNLLNLPTRVIVVWFQNARQKARK [F17L], for which the abundance fitness is -0.381 ± 0.1. The result for SSRTRFTDYQLRVLQDFIDANAYPKDDEFEQLSNLLNLPTRVIVVWFQNARQKARK [F18I] reads -0.249 ± 0.22. With SSRTRFTDYQLRVLQDFMDANAYPKDDEFEQLSNLLNLPTRVIVVWFQNARQKARK [F18M], the abundance fitness was -0.298 ± 0.14. The result for SSRTRFTDYQLRVLQDFVDANAYPKDDEFEQLSNLLNLPTRVIVVWFQNARQKARK [F18V] reads -0.435 ± 0.084; that for SSRTRFTDYQLRVLQDFEDANAYPKDDEFEQLSNLLNLPTRVIVVWFQNARQKARK [F18E], -0.579 ± 0.12; that for SSRTRFTDYQLRVLQDFWDANAYPKDDEFEQLSNLLNLPTRVIVVWFQNARQKARK [F18W], -0.424 ± 0.13. The result for SSRTRFTDYQLRVLQDFKDANAYPKDDEFEQLSNLLNLPTRVIVVWFQNARQKARK [F18K] reads -0.625 ± 0.14.

Consider SSRTRFTDYQLRVLQDFNDANAYPKDDEFEQLSNLLNLPTRVIVVWFQNARQKARK [F18N], for which the abundance fitness is -0.733 ± 0.29.

Consider SSRTRFTDYQLRVLQDFQDANAYPKDDEFEQLSNLLNLPTRVIVVWFQNARQKARK [F18Q], for which the abundance fitness is -0.268 ± 0.14. Regarding SSRTRFTDYQLRVLQDFCDANAYPKDDEFEQLSNLLNLPTRVIVVWFQNARQKARK [F18C], the abundance fitness is -0.174 ± 0.12. Take SSRTRFTDYQLRVLQDFLDANAYPKDDEFEQLSNLLNLPTRVIVVWFQNARQKARK [F18L]: the abundance fitness was -0.19 ± 0.1.

On to SSRTRFTDYQLRVLQDFADANAYPKDDEFEQLSNLLNLPTRVIVVWFQNARQKARK [F18A], for which the abundance fitness is -0.279 ± 0.086. The figure for SSRTRFTDYQLRVLQDFTDANAYPKDDEFEQLSNLLNLPTRVIVVWFQNARQKARK [F18T] is -0.772 ± 0.14; for SSRTRFTDYQLRVLQDFYDANAYPKDDEFEQLSNLLNLPTRVIVVWFQNARQKARK [F18Y] it is 0.011 ± 0.18. The figure for SSRTRFTDYQLRVLQDFGDANAYPKDDEFEQLSNLLNLPTRVIVVWFQNARQKARK [F18G] is -0.984 ± 0.11. The result for SSRTRFTDYQLRVLQDFSDANAYPKDDEFEQLSNLLNLPTRVIVVWFQNARQKARK [F18S] reads -0.349 ± 0.1; that for SSRTRFTDYQLRVLQVFFDANAYPKDDEFEQLSNLLNLPTRVIVVWFQNARQKARK [D16V], -0.344 ± 0.11; that for SSRTRFTDYQLRVLQEFFDANAYPKDDEFEQLSNLLNLPTRVIVVWFQNARQKARK [D16E], -0.129 ± 0.11. Consider SSRTRFTDYQLRVLQYFFDANAYPKDDEFEQLSNLLNLPTRVIVVWFQNARQKARK [D16Y], for which the abundance fitness was -0.797 ± 0.24. The result for SSRTRFTDYQLRVLQGFFDANAYPKDDEFEQLSNLLNLPTRVIVVWFQNARQKARK [D16G] reads -0.023 ± 0.077. The result for SSRTRFTDYQLRVLQHFFDANAYPKDDEFEQLSNLLNLPTRVIVVWFQNARQKARK [D16H] reads 0.033 ± 0.15; that for SSRTRFTDYQLRVLQQFFDANAYPKDDEFEQLSNLLNLPTRVIVVWFQNARQKARK [D16Q], -0.035 ± 0.15.

Take SSRTRFTDYQLRVLQKFFDANAYPKDDEFEQLSNLLNLPTRVIVVWFQNARQKARK [D16K]: the abundance fitness is -0.179 ± 0.16. As to SSRTRFTDYQLRVLQCFFDANAYPKDDEFEQLSNLLNLPTRVIVVWFQNARQKARK [D16C], the abundance fitness was -0.472 ± 0.13. The figure for SSRTRFTDYQLRVLQFFFDANAYPKDDEFEQLSNLLNLPTRVIVVWFQNARQKARK [D16F] is -0.596 ± 0.26; for SSRTRFTDYQLRVLQWFFDANAYPKDDEFEQLSNLLNLPTRVIVVWFQNARQKARK [D16W] it is -0.714 ± 0.12.

SSRTRFTDYQLRVLQSFFDANAYPKDDEFEQLSNLLNLPTRVIVVWFQNARQKARK [D16S]: the abundance fitness is -0.023 ± 0.11. As to SSRTRFTDYQLRVLQAFFDANAYPKDDEFEQLSNLLNLPTRVIVVWFQNARQKARK [D16A], the abundance fitness was -0.353 ± 0.11. The figure for SSRTRFTDYQLRVLQNFFDANAYPKDDEFEQLSNLLNLPTRVIVVWFQNARQKARK [D16N] is -0.222 ± 0.19. The figure for SSRTRFTDYQLRVLQIFFDANAYPKDDEFEQLSNLLNLPTRVIVVWFQNARQKARK [D16I] is -0.22 ± 0.25; for SSRTRFTDYQLRVLQTFFDANAYPKDDEFEQLSNLLNLPTRVIVVWFQNARQKARK [D16T] it is -0.114 ± 0.16. The figure for SSRTRFTDYQLRVLQRFFDANAYPKDDEFEQLSNLLNLPTRVIVVWFQNARQKARK [D16R] is -0.035 ± 0.082.
